Reference: paper PMC6863704 (Protein Science : A Publication of the Protein Society, 2019)

Biological target: the molecule itself
Experiment: NMR

B1: p50 dimerization domain of NFκB1 (residues 241–351), long construct with non-native N-terminal extension (domain or fragment, mouse)
chain: VGTGSNDDDDKAPNASNLKIVRMDRTAGCVTGGEEIYLLCDKVQKDDIQIRFYEEEENGGVWEGFGDFSPTDVHRQFAIVFKTPKYKDVNITKPASVFVQLRRKSDLETSEPKPFLYYPEI
In the case of B1, the “stoichiometry N” value is reported as 2.
